The record followed here is patent publication US20170137467A1 (CHROMOTEK, published 2017).

Square brackets hold non-standard residues; d marks the D form. GABA = NCCCC(=O)O

Common to all, as to test: positional peptide library pulldown on immobilised Nb, LC-MS of supernatant; signal ratio to control GFP-Nb (1 = not captured, near 0 = captured)
The target in one assay is T1, BC2T V7P.
T1 construct: positional scanning library member
T1 peptide: Ac-PDRKAAPSHWQQ-NH2
The method, boiled down:
(§1)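 Unbound peptide left in supernatant after 1 h pulldown in PBS/0.01% CHAPS measured by reversed-phase LC-MS (8–30% eluent B gradient, 20 min).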

The target in the next assay is T2, BC2T P1F.
T2 construct: positional scanning library member
T2 peptide: Ac-FDRKAAVSHWQQ-NH2
The essentials: as §1

For a further assay, the target named is T3, BC2T V7W.
T3 construct: positional scanning library member
T3 peptide: Ac-PDRKAAWSHWQQ-NH2
The essentials:
as §1

The target in the next assay is T4, BC2T A6S.
T4 construct: positional scanning library member
T4 peptide: Ac-PDRKASVSHWQQ-NH2
The essentials:
as §1

In a further assay the target is T5, BC2T V7S.
T5 construct: positional scanning library member
T5 peptide: Ac-PDRKAASSHWQQ-NH2
The essentials: as §1

In another assay the target is T6, BC2T V7T.
T6 construct: positional scanning library member
T6 peptide: Ac-PDRKAATSHWQQ-NH2
The method, boiled down: as §1

For a further assay, the target named is T7, BC2T R3N.
T7 construct: positional scanning library member
T7 peptide: Ac-PDNKAAVSHWQQ-NH2
The method, boiled down: as §1

The next assay deals with T8, BC2T A6N.
T8 construct: positional scanning library member
T8 peptide: Ac-PDRKANVSHWQQ-NH2
The method, boiled down: as §1

In the next assay the target is T9, BC2T P1Q.
T9 construct: positional scanning library member
T9 peptide: Ac-QDRKAAVSHWQQ-NH2
The essentials: as §1

For another assay, the target named is T10, BC2T D2Q.
T10 construct: positional scanning library member
T10 peptide: Ac-PQRKAAVSHWQQ-NH2
The essentials:
as §1

For a further assay, the target named is T11, BC2T R3P.
T11 construct: positional scanning library member
T11 peptide: Ac-PDPKAAVSHWQQ-NH2
The essentials:
as §1

In a further assay the target is T12, BC2T R3C(Abu) (SMILES …).
T12 construct: positional scanning library member
T12 peptide: Ac-PD[GABA]KAAVSHWQQ-NH2
The method, boiled down:
as §1

For another assay, the target named is T13, BC2T A6C(Abu) (SMILES …).
T13 construct: positional scanning library member
T13 peptide: Ac-PDRKA[GABA]VSHWQQ-NH2
The essentials:
as §1

The target in the next assay is T14, BC2T K4P.
T14 construct: positional scanning library member
T14 peptide: Ac-PDRPAAVSHWQQ-NH2
The method, boiled down:
as §1

The target of a further assay is T15, BC2T P1H.
T15 construct: positional scanning library member
T15 peptide: Ac-HDRKAAVSHWQQ-NH2
The method, boiled down:
as §1

A further assay concerns the target T16, BC2T D2H.
T16 construct: positional scanning library member
T16 peptide: Ac-PHRKAAVSHWQQ-NH2
The essentials: as §1

The next assay concerns the target T17, BC2T A6P.
T17 construct: positional scanning library member
T17 peptide: Ac-PDRKAPVSHWQQ-NH2
The method, boiled down:
as §1

Another assay deals with T18, BC2T A5E.
T18 construct: positional scanning library member
T18 peptide: Ac-PDRKEAVSHWQQ-NH2
The essentials: as §1

The target of a further assay is T19, BC2T Q11D.
T19 construct: positional scanning library member
T19 peptide: Ac-PDRKAAVSHWDQ-NH2
The essentials: as §1

The target in the next assay is T20, BC2T Q12E.
T20 construct: positional scanning library member
T20 peptide: Ac-PDRKAAVSHWQE-NH2
The essentials:
as §1

A further assay addresses T21, BC2T Q11P.
T21 construct: positional scanning library member
T21 peptide: Ac-PDRKAAVSHWPQ-NH2
The method, boiled down: as §1

B1: BC2-NbR106E (VHH)
VHH: QVQLVESGGGLVQPGGSLTLSCTASGFTLDHYDIGWFRQAPGKEREGVSCINNSDDDTYYADSVKGRFTIFMDNAKDTVYLQMNSLKPEDTAIYYCAEARGCKRGEYEYDFWGQGTQVTVSS
notes: headlock mutant of BC2-Nb; immobilised on beads in this assay
B1: the ratio in the assay with BC2T V7P was 0.9; with BC2T P1F, 0.3; with BC2T V7W it was 0.2; with BC2T A6S it was 0.6; with BC2T V7S it was 0.3; with BC2T V7T it was 0.2. For the same molecule, the ratio amounted to 0.9 with BC2T R3N; 1 in the assay with BC2T A6N; 0.6 with BC2T P1Q; 0.1 in the assay with BC2T D2Q; 1 with BC2T R3P; 0.9 with BC2T R3C(Abu). Also, the ratio with BC2T A6C(Abu) turned out to be 0.1; with BC2T K4P, 1; with BC2T P1H, 0.4; with BC2T D2H, 0.1; in the assay with BC2T A6P, 1.1; in the assay with BC2T A5E, 0.8.

B2: BC2 nanobody (VHH)
VHH: QVQLVESGGGLVQPGGSLTLSCTASGFTLDHYDIGWFRQAPGKEREGVSCINNSDDDTYYADSVKGRFTIFMDNAKDTVYLQMNSLKPEDTAIYYCAEARGCKRGRYEYDFWGQGTQVTVSS
notes: immobilised on beads in this assay; also called BC2-Nb; BC2 nanotrap (immobilised)
For B2, the ratio with BC2T Q11D was 0.2; in the assay with BC2T Q12E, 0.4.

B3: BC2-NbR106S (VHH)
VHH: QVQLVESGGGLVQPGGSLTLSCTASGFTLDHYDIGWFRQAPGKEREGVSCINNSDDDTYYADSVKGRFTIFMDNAKDTVYLQMNSLKPEDTAIYYCAEARGCKRGSYEYDFWGQGTQVTVSS
notes: as for B1
B3: in the assay with BC2T Q11P, the ratio was determined as 0.9.
